Source: patent US20220098328A1, “ANTIBODIES TO M(H)DM2/4 AND THEIR USE IN DIAGNOSING AND TREATING CANCER” (NomoCan Pharmaceuticals LLC, priority 2017, published 2022)

Legend:
[1] = tested on: mouse Lewis Lung LL/2 cells; assay: Cell-ELISA on intact cells; format: cell-based; conditions: for relative binding (reactivity) to intact cells, cell-ELISA: LL/2, mAb 1 μg/mL, fixed, non-permeabilized cells
Description: (§1) Cell-ELISA Methodology: 8,000-10,000 cells/well of a 96-well microplate were grown overnight. The next day, unbound cells were washed off with sterile 1×PBS. The cells in each well were fixed with freshly prepared 4% buffered paraformaldehyde (pH 7.2) for 1 hour followed by 3 washes with 1×PBS. The wells were then blocked with 5% BSA in PBS (100 μl/well) for 2 hours at room temperature. Microplate wells were then washed 5 times with 300 μl of ice cold 1×PBS. MAbs NMC-103, NMC-204 or NMC-303 at 1 μg/mL in 1% BSA/PBS were then incubated with various cancer or normal untransformed cells for 2 hours at room temperature. Wells were then washed with 300 μl of ice-cold 1×PBS for 5 times and corresponding secondary antibody HRP-GaM F(ab′)2 diluted 1:2500 or 1:5000 in PBS with 1% BSA were added at 100 μl/well for 1 hour at room temperature followed by washing 5 times with 300 μl of ice-cold 1×PBS. TMB Substrate Solution (1-Step™ Ultra TMB-ELISA, ThermoFisher, Cat. No. 34028) was then added at 50 μL to each microplate well and incubated at room temperature for 30 minutes. The reaction was stopped by addition of 50 μL of stop solution (ThermoFisher, Cat. No. SS04) to each well and absorbance of each well was measured at OD450 nm. The absorbance value of each experimental well was corrected for the absorbance value obtained from wells treated with isotype-identical mAbs included in each experiment. The results are thus expressed as “relative binding”.
(§2) In a 96-well microplate, 15,000 cells/well were cultured overnight. The next day, unbound cells were washed off with sterile 1×PBS. The cells in each well were fixed with freshly prepared 4% buffered paraformaldehyde (pH 7.2) for 1 hour, followed by 3 washes with 1×PBS. The wells were then blocked with 5% BSA in PBS (100 μl/well) for 2 hours at room temperature. Microplate wells were then washed 5 times with 300 μl of ice cold 1×PBS. Monoclonal antibodies NMC-H103 (VH4/VK3) or NMC-C303 at 5 μg/mL in 1% BSA/PBS were then incubated with various cancer cells for 2 hours at room temperature. Wells were then washed with 300 μl of ice-cold 1×PBS for 5 times and corresponding secondary antibody HRP-GaH F(ab′)2 diluted 1:2000 or 1:4000 in PBS with 1% BSA were added at 100 μl/well for 1 hour at room temperature followed by washing 5 times with 300 μl of ice-cold 1×PBS. TMB Substrate Solution (1-Step™ Ultra TMB-ELISA, ThermoFisher, Cat. No. 34028) was then added at 50 μL to each microplate well and incubated at room temperature for 30 minutes. The reaction was stopped by addition of 50 μL of stop solution (ThermoFisher, Cat. No. SS04) to each well and absorbance of each well was measured at OD450 nm. The absorbance value of each experimental well was corrected for the absorbance value obtained from wells treated with isotype-identical mAbs included in each experiment.

[2] = tested on: mouse pancreatic Panc02 cells; assay: Cell-ELISA on intact cells; format: cell-based; conditions: for relative binding (reactivity) to intact cells, cell-ELISA: Panc02, mAb 1 μg/mL, fixed, non-permeabilized cells
Description: as §1, §2

[3] = tested on: human pancreatic cancer MIAPaCa-2 cells; assay: In vitro growth inhibition (cell count); format: cell-based; conditions: overnight, MIAPaCa-2 8,000 cells/well
Description: Methodology used: Human pancreatic cancer MIAPaCa-2 cells (8,000 cells/well) were pre-incubated with mAb NMC-103, NMC-204 and anti-Cytochrome-C antibody (Santa Cruz, Cat No. sc-13156) at 1, 5 and 10 μg/mL, respectively. Cells in the presence of one of the antibodies at various concentrations were then plated in triplicate in 96-well cell culture plates overnight. The next day, each plate well was analyzed morphologically and a picture was taken from each well using EVOS FL microscope. Cell count was also performed and the number of living cells was graphed as % of control.

[4] = tested on: mouse colon cancer MC-38 cells; assay: MC-38 syngeneic mouse model of colon cancer; format: in vivo; conditions: for reduction in tumor volume over the same time period: 0.4 mg/kg i.p. 3 times a week for 3 weeks
Description: Methodology used (Syngeneic Mouse Models of lung, colon and pancreatic cancer): To investigate the anti-tumor effects of HDM2-specific antibodies on lung, colon and pancreatic tumors in vivo, three well-known syngeneic mouse models of lung, colon and pancreatic cancer were used (Sharma et al., 1999, J. Immunol. 163 (9):5020-5028; McIntyre, 2015, Bioassays 37(8):909-920; Li, et al., 2015, Sci. Rep. 5:7856). Subcutaneous tumors were prepared by implanting either mouse Lewis Lung cancer LL/2 cells (2.5×10^5 cells/mouse), mouse colon cancer MC-38 cells (5×10^5 cells/mouse) or mouse pancreatic cancer Panc-2 cells (2×10^6 cells/mouse) in the right flanks of 8-week-old female C57BL/6 mice (n=6-7). The mice were returned to their respective cages after tumor implantation. From day 7 after tumor implantation, the tumor volumes were measured 2 times/week with a digital caliper. In the case of MC-38 and Panc-2 study, treatment started when the tumors reached an average of 70-80 mm^3. In the case of LL/2 study, tumor cell inoculation and treatment were initiated simultaneously. Mice were micro-chipped and registered following tumor implantation. Tumor volume measurements and body weights were recorded and mice were randomized into groups that received: A) mAb NMC-103 at 0.4 mg/kg (3 times a week for 3 weeks), 2 mg/kg (2 times a week for 3 weeks), or 4 mg/kg (2 times a week for 3 weeks); B) NMC-204 at 0.4 mg/kg (3 times a week for 3 weeks); C) isotype control mouse IgG1 (Abcam, Cat. No. ab18447) or IgG3 (Abcam, Cat. No. ab18392) at 0.4 mg/kg (3 times a week for 3 weeks) or 4 mg/kg (2 times a week for 3 weeks); D) Gemcitabine (25 mg/kg) and nab-paclitaxel (5 mg/kg) 2 times a week for 3 weeks; or E) a combination of gemcitabine (25 mg/kg), nab-paclitaxel (5 mg/kg) and mAb NMC-103 (2 mg/kg; 2 times a week for 3 weeks) or ([…]; […]). All tumors were injected subcutaneously and all treatments were performed by intraperitoneal injection. Any mouse displaying prolonged adverse clinical signs, or with body weight loss exceeding 15% relative to body weight at day 0, was euthanized. Tumor measurements from post-treatment with HDM2-specific antibodies versus isotype control mouse antibodies versus standard of care treatment (gemcitabine and nab-paclitaxel) were made, and results are presented in FIGS. 16-19.

| Molecule | relative binding (reactivity) to intact cells, cell-ELISA [1] | relative binding (reactivity) to intact cells, cell-ELISA [2] | growth inhibitory effect ([3]; 1 μg/mL antibody) [%] | growth inhibitory effect ([3]; 5 μg/mL antibody) [%] | growth inhibitory effect ([3]; 10 μg/mL antibody) [%] | average tumor size ([4]; MC-38, n=5, 10 mg/kg 2 times per week, by day 12) [mm^3] | reduction in tumor volume over the same time period ([4]; MC-38) | tumor reduction at 10 mg/kg compared to 0.4 mg/kg ([4]; MC-38, 10 mg/kg two times per week for three weeks vs FIG. 17) | tumor volume ([4]; MC-38 s.c. in C57BL/6, 0.4 mg/kg i.p. 3 times a week for 2.5 weeks, treated for 18 days (NMC-103 study)) [mm^3] | tumor cells stained positive for Ki67 ([4]; MC-38 tumors, immunohistochemical staining, NMC-103 study, 0.4 mg/kg) [%] | OD reading / binding after pre-incubation of antibody with NMC-P1 ([1]; LL/2 cells, antibody 5 μg/mL, NMC-P1 at ×10 the concentration of mAbs) | binding to intact, un-permeabilized cells, cell-based ELISA ([2]; Panc-2 pancreatic cancer cells, mAb 5 μg/mL) | tumor volume ([4]; MC-38, 0.4 mg/kg i.p. 3 times a week for 3 weeks (NMC-204 study)) [mm^3] | tumor cells stained positively for Ki67 ([4]; MC-38 tumors, NMC-204 study, 0.4 mg/kg) [%] |
| --- | --- | --- | --- | --- | --- | --- | --- | --- | --- | --- | --- | --- | --- | --- |
| NMC-103: mouse monoclonal antibody of the IgG1 isotype that binds to NMC-P1 (SEQ ID NO:1); VH SEQ ID NO:36, VL SEQ ID NO:37 (antibody, V domains shown, mAb NMC-103 Heavy Chain Variable Region; mAb NMC-103 Light Chain Variable Region) VH: EVQLQESGGGLVQPGGSLRLSCTTSGFTFTHYYMSWVRQPPGKALEWLGFIRNKAKGYTAEYSASVKGRFTISRDNSQSILYLQMNTLRPEDSATYYCARDIGDNWGQGTLVTVSS VL: DIVMTQAAFSNPVTLGTSASISCRSSKNLLHSNGITYLYWYLQRPGQSPQLLISRVSNLASGVPNRFSGSESGTDFTLRISRVEAEDVGVYFCAQLLELPYTFGGGTKLEIK | reactivity | reactivity | 65 | 84 | 91 | 210 | significant (p<0.005) reduction in tumor volume | greater tumor reduction | 1268 | 5 | – | – | – | – |
| NMC-H103 (VH4/VK3): humanized NMC-103 variant, human IgG1, VH4 (SEQ ID NO:299) and VK3 (SEQ ID NO:297) (antibody, V domains shown, human IgG1 constant regions lacking entries; mAb NMC-H103.VH4Heavy Chain Variable Region; mAb NMC-H103.VK3Light Chain Variable Region) VH: EVQLVESGGGLVQPGPSLRLSCTTSGFTFTHYYMSWVRQAPGKGLEWLGFIRNKAKGYTAEYSASVKGRFTISRDNSKSTLYLQMNSLRAEDTAVYYCARDIGDNWGQGTLVTVSS VL: DIVMTQTPLSSPVTLGQPASISCRSSKNLLHSNGITYLYWYLQKPGQSPQLLISRVSNLASGVPDRFSGSESGTDFTLKISRVEAEDVGVYFCAQLLELPYTFGGGTKVEIK | – | – | – | – | – | – | – | – | – | – | 1.09 OD450 (absorbance, unitless) | binding | – | – |
| NMC-204: mouse monoclonal antibody of the IgG3 isotype that binds to NMC-P2 (SEQ ID NO:2); VH SEQ ID NO:38, VL SEQ ID NO:39 (antibody, V domains shown, mAb NMC-204 Heavy Chain Variable Region; mAb NMC-204 Light Chain Variable Region) VH: EVQLQESGSVLVRPGASVKLSCKASGDTLSGSWMHWAMQRPGQGLEWIGEIHLNRGTTNYNEKFKGKATVTVDTSSSTAYVDLSSLTSEDSAVYYCARSPGFAYWGQGTLVTVSA VL: GIVMTQAAPSVPVTPGESVSISCRSSKSLLHSNGNSYLYWFLQRPGQSPQLLIYRMSNLASGVPDRFSGSGSGTAFTLRITRVEAEDVGVYYCMQHLEYPFTFGSGTKLEIK | reactivity | reactivity | 65 | 73 | 77 | – | significant (p<0.005) reduction in tumor volume | – | – | – | – | – | 1670 | 30 |
